Laboratory results taken from patent US20040213794.

Test system: myelin basic protein (MBP)

Row | Substance | in gel kinase assay (MBP as substrate)
1 | Mst1 (mammalian sterile 20-like kinase-1), full length 61 kD form, endogenous in neonatal rat cardiac myocytes | activation of the full length (61 kD) and cleaved (34 kD) forms of Mst1 after 6 hr Doxo stimulation of cardiac myocytes
2 | Mst1, cleaved 34 kD form (amino-terminal half containing the N-terminal kinase domain), in neonatal rat cardiac myocytes | activation of the full length (61 kD) and cleaved (34 kD) forms of Mst1 after 6 hr Doxo stimulation of cardiac myocytes
